The target of assay [1] is PFHR9 NC1 domains. Nature of the assay: SEC. In general terms: Size exclusion chromatography separates by hydrodynamic size, large species first.
Assay [2] concerns the target recombinant collagen IV α112 protomer (r-Prot). Nature of the assay: SEC.

By stoichiometry N is commonly meant the number of molecules, sites or subunits per partner or assembly.

Turning to PFHR9 NC1 domains, the stoichiometry N in assay [1] was 6.

Regarding “recombinant collagen IV α112 protomer (r-Prot) (complex)”, the stoichiometry N in assay [2] was determined as 2.
